Laboratory results: article PMC4942575, “Plastid-nucleus communication involves calcium-modulated MAPK signalling” (Nature Communications, 2016)

Columns and labels:
GST-MPK3 = target: T1, GST-MPK3 (Arabidopsis, UniProt Q39023 1-370); assay: pull-down; GST or GST-MPK3/MPK6 immobilised on glutathione beads, 4 μg His-tagged ABI4, 4 °C for 4 h; washed with 50 mM Tris-HCl pH 7.4, 100 mM NaCl, 1 mM EDTA, 0.5% Nonidet P-40; anti-His immunoblot; conditions: both partners purified
T1 construct: MPK3, Arabidopsis, full length, in PGEX5X-1; also called GST-tagged MPK3
T1 sequence (looked up): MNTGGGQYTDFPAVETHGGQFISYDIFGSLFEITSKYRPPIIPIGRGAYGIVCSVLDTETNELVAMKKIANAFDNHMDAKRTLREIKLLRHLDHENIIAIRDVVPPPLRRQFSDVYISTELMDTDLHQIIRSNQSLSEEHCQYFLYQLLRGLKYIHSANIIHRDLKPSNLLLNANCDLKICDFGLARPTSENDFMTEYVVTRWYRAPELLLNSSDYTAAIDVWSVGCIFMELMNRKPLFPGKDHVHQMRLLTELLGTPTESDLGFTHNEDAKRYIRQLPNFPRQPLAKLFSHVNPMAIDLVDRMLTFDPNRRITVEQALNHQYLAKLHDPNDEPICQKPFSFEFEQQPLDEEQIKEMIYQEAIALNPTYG

GST-MPK6 = target: T2, GST-MPK6 (Arabidopsis, UniProt Q39026 1-395); assay: as above; conditions: both partners purified
T2 construct: MPK6, Arabidopsis, full length, in PGEX5X-1; also called GST-tagged MPK6
T2 sequence (Q39026 whole entry): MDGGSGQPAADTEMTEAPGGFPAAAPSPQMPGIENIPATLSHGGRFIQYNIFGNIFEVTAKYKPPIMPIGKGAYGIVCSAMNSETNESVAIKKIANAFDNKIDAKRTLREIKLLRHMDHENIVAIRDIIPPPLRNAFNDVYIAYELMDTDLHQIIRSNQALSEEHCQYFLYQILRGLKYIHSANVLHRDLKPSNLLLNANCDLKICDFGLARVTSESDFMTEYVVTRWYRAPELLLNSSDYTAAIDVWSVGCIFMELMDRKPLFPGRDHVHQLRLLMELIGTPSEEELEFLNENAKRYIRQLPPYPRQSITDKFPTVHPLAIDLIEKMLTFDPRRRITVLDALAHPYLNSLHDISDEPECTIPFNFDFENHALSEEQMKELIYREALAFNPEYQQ

B1: His-tagged ABI4 (natural protein)
chain: not shown
notes: ABI4, Arabidopsis; the ABI4 cDNA was inserted into the pCold vector; The pull-down methods name only 'recombinant His-tagged ABI4 protein'; also called recombinant ABI4
- binding result (GST-MPK3): binds
- binding result (GST-MPK6): binds
